# Laboratory results from US20150057436A1 (ARGEN X, published 2015).
# How the values were obtained:
# [1] = biological target: T1, human IL-1 Beta (human, UniProt P01584 117-269, biotinylated in the Fab, phage and competition ELISAs); test: ELISA: Fab captured on anti-myc plate, biot-IL-1 Beta, streptavidin-HRP
# T1 construct: also called biot-IL-1 Beta; biotinylated IL-1 Beta
# Experimental: For this the Fabs were captured on an anti-myc coated Maxisorp plate. Biotinylated human IL-1 Beta was added and bound cytokine was detected using HRP-conjugated streptavidin.
# The genes of these Fabs were ordered as synthetic genes with GeneArt (Germany) and were subsequently produced in E. coli, purified and tested for their ability to bind biot-IL-1 Beta. For this the Fabs were captured on an anti-myc coated Maxisorp plate. Biotinylated human IL-1 Beta was added and bound cytokine was detected using HRP-conjugated streptavidin. The read out of this assay is represented in FIG. 3 below. [0459] […] [0460] Partial (wt Vλ/safe VH) and complete (wt Vλ/hum VH) humanization of the VH domain of 1E2 generated a functional Fab.
# [2] = biological target: T2, neutravidin (UniProt P02701 25-152); test: phage ELISA on neutravidin coated wells, crude phage extract, anti-M13-HRP
# T2 construct: Capture protein of the phage ELISA, tested alone as the negative control
# Experimental: (§1) The humanized variants of clone 1F2 were tested with phage expressing gene3-Fabs fusions (FIG. 4). Phage were produced from 4 independent clones for each construct: [0462] wt 1F2 and wt 1E2 (llama Vλ and VH fused to human CA and CH1) [0463] safe variant 1F2 and safe variant 1E2 (partially humanized Vλ fused to human CA and CH1) [0464] hum 1F2 and hum 1E2 (fully humanized Vλ and VH fused to human CA and CH1)
# (§2) Four clones for each Fab were tested to overcome clonal variation (due to bacterial growth, phage production efficiency and toxicity etc. . . . ). Phage ELISA was performed by capturing of biotinylated IL-1 Beta on neutravidin coated Maxisorp plate and subsequent incubation of crude phage extract (i.e. bacterial medium). After extensive washing, bound phages were detected with an anti-M13-HRP monoclonal antibody. […] [0466] Back mutations in the framework regions of 1F2 VL and VH domains to the closest human germline successfully yield partially (safe) and fully (hum) humanized variants, maintaining antigen specificity. Successful Formatting of Camelid Variable Domains with Human Constant Domains
# [3] = biological target: T1, human IL-1 Beta; test: phage ELISA: biot-IL-1 Beta captured on neutravidin, crude phage, anti-M13-HRP
# Experimental: as §1, §2
# [4] = biological target: T1, human IL-1 Beta; test: cell-based or functional assay
# Target sequence in this assay (P01584 117-269 limits assumed): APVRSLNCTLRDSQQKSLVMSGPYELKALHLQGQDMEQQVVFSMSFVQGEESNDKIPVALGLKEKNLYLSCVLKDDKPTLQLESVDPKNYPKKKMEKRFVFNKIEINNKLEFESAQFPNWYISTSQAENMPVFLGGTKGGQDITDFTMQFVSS
# [5] = biological target: T1, human IL-1 Beta; test: competition ELISA, periplasmic Fab extract; competitor: coated blocking mouse mAb; OD of biot-IL-1 Beta bound
# Target sequence in this assay (P01584 117-269 limits assumed): as above
# [6] = biological target: T1, human IL-1 Beta; test: ELISA based competition assay; competitor: antagonistic reference mouse mAb
# Target sequence in this assay (P01584 117-269 limits assumed): as above
# T2 sequence (P02701 25-152): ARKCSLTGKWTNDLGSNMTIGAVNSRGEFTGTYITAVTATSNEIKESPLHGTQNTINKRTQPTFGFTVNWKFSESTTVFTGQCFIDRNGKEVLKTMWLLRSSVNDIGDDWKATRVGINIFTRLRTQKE
Binder,binding result [1],OD [5] [OD],other results
"wild type llama 1E2 Fab (Fab, V domains shown, Llama variable and llama constant domains, produced from pCB3; captured through its myc tag; also called Fab 1E2) VH: EVQLVESGGGLVQPGGSLRLSCTASGFTFSNYWMYWVRQAPGKGLEWVSAINAAGSTYYADSVKGRFTISRDNAKNTLYLQMNSLQSEDTALYYCANLPRWGQGTQVTVSS VL: QTVVTQEPSLSVSPGGTVTLTCGLSSGSVTSGNYPGWYQQKPGQAPRTLIYNTNSRYSGVPNRFSGSISGNKAALTITGAQPEDEADYYCAVYIGSSSYPVVFGGGTHLTVL",binds,,
"wt 1E2 (llama Vλ and VH fused to human Cλ and CH1), phage expressing gene3-Fab fusion (Fab, V domains shown) VH: EVQLVESGGGLVQPGGSLRLSCTASGFTFSNYWMYWVRQAPGKGLEWVSAINAAGSTYYADSVKGRFTISRDNAKNTLYLQMNSLQSEDTALYYCANLPRWGQGTQVTVSS VL: QTVVTQEPSLSVSPGGTVTLTCGLSSGSVTSGNYPGWYQQKPGQAPRTLIYNTNSRYSGVPNRFSGSISGNKAALTITGAQPEDEADYYCAVYIGSSSYPVVFGGGTHLTVL",,,binding result [2]: no binding
"hum 1E2 (fully humanized Vλ and VH fused to human Cλ and CH1), phage expressing gene3-Fab fusion (Fab, V domains shown) VH: EVQLVESGGGLVQPGGSLRLSCAASGFTFSNYWMYWVRQAPGKGLEWVSAINAAGSTYYADSVKGRFTISRDNSKNTLYLQMNSLRAEDTAVYYCANLPRWGQGTLVTVSS VL: QTVVTQEPSFSVSPGGTVTLTCGLSSGSVTSGNYPGWYQQTPGQAPRTLIYNTNSRSSGVPDRFSGSILGNKAALTITGAQADDESDYYCAVYIGSSSYPVVFGGGTKLTVL",,,binding result [2]: no binding
"chimeric 1E2 Fab (llama Vλ and VH fused to human Cλ and CH1) (Fab, V domains shown, VH fused to human CH1, Vλ fused to human Cλ; produced in E. coli from pCB5; myc tag; also called wt 1E2) VH: EVQLVESGGGLVQPGGSLRLSCTASGFTFSNYWMYWVRQAPGKGLEWVSAINAAGSTYYADSVKGRFTISRDNAKNTLYLQMNSLQSEDTALYYCANLPRWGQGTQVTVSS VL: QTVVTQEPSLSVSPGGTVTLTCGLSSGSVTSGNYPGWYQQKPGQAPRTLIYNTNSRYSGVPNRFSGSISGNKAALTITGAQPEDEADYYCAVYIGSSSYPVVFGGGTHLTVL",binds,,
"1E2 Fab wt Vλ/safe VH (Fab, V domains shown, also called wt/safe) VH: EVQLVESGGGLVQPGGSLRLSCAASGFTFSNYWMYWVRQAPGKGLEWVSAINAAGSTYYADSVKGRFTISRDNSKNTLYLQMNSLQSEDTAVYYCANLPRWGQGTQVTVSS VL: QTVVTQEPSLSVSPGGTVTLTCGLSSGSVTSGNYPGWYQQKPGQAPRTLIYNTNSRYSGVPNRFSGSISGNKAALTITGAQPEDEADYYCAVYIGSSSYPVVFGGGTHLTVL",binds,,
"1E2 Fab wt Vλ/hum VH (Fab, V domains shown, also called wt/hum) VH: EVQLVESGGGLVQPGGSLRLSCAASGFTFSNYWMYWVRQAPGKGLEWVSAINAAGSTYYADSVKGRFTISRDNSKNTLYLQMNSLRAEDTAVYYCANLPRWGQGTLVTVSS VL: QTVVTQEPSLSVSPGGTVTLTCGLSSGSVTSGNYPGWYQQKPGQAPRTLIYNTNSRYSGVPNRFSGSISGNKAALTITGAQPEDEADYYCAVYIGSSSYPVVFGGGTHLTVL",binds,,
"hum 1F2 (fully humanized Vλ and VH fused to human Cλ and CH1), phage expressing gene3-Fab fusion (Fab, V domains shown, also called fully (hum) humanized 1F2) VH: EVQLLESGGGLVQPGGSLRLSCAASGFTFSTYAMSWVRQAPGKGLEWVSGINTGGGSTGYADSVKGRFTISRDNSKNTLYLQMNSLRAEDTAVYYCAKDWMATTPWGQGTLVTVSS VL: QTVVTQEPSFSVSPGGTVTLTCGLSSGSVTTNNYPGWYQQTPGQAPRTLIYNTNNRSSGVPDRFSGSILGNKAALTITGAQADDESDYYCALYMSSGSNNAVFGGGTKLTVL",,,binding result [2]: no binding; binding result [3]: binds
"Fab 1C3 (Fab, part only; not given: lambda light chain, V domains shown, not shown: a dimerising Fc or GST) VH: EVQLVESGGGLVQPGGSLRLSCAASGFTFSSYWMYWVRQAPGKGLEWVSAINTGGGRTYYADSVKGRFTISRDNAKNTLYLQMNSLKSEDTAVYYCAKGTSADGSSWYVPADPYDYWGQGTQVTVSS",,0.386,IC50 in the bioassay [4]: 3 µg/mL; concentration at which competition is seen [6]: > 50 µg/mL
"Fab 1B3 (Fab, part only; not given: lambda light chain, V domains shown, not shown: a dimerising Fc or GST) VH: EVQLVQSGAELRNPGASVKVSCKASGYTFTSYYIDWVRQAPGQGLEWMGRIDPEDGGTKYAQKFQGRVTFTADTSTSTAYVELSSLRSEDTAVYYCARSGRYELDYWGQGTQVTVSS",,0.444,
"Fab 1G1 (Fab, part only; not given: lambda light chain, V domains shown, not shown: a dimerising Fc or GST) VH: EVQLVQSGAELRNPGASVKVSCKASGYTFTSYYTDWVRQAPGQGLEWMGRIDPEDGDTKYAQKFQGRVTFTADTSTSTAYVELTSLRSEDTAVYYCLRSGAYELDYWGQGTQVTVSS",,0.498,
"Fab 1A1 (Fab, part only; not given: lambda light chain, V domains shown, not shown: a dimerising Fc or GST) VH: EVQLVESGGGLVQPGGSLRLSCAASGFTFDDYAMSWVRQAPGKGLEWVSTISWNGGATYYAESMKGRFTISRDNAKNTLYLQMNSLKSEDTAVYYCAKPYYSDYVGVEYDYWGQGTQVTVSS",,0.205,IC50 in the bioassay [4]: 10 µg/mL; IC50 [6]: 12 µg/mL
